From patent US12746270 (dated 2026)

Target: human megalin (human)
Assay: SPR

Chain of human megalin (human) (O00711 whole entry): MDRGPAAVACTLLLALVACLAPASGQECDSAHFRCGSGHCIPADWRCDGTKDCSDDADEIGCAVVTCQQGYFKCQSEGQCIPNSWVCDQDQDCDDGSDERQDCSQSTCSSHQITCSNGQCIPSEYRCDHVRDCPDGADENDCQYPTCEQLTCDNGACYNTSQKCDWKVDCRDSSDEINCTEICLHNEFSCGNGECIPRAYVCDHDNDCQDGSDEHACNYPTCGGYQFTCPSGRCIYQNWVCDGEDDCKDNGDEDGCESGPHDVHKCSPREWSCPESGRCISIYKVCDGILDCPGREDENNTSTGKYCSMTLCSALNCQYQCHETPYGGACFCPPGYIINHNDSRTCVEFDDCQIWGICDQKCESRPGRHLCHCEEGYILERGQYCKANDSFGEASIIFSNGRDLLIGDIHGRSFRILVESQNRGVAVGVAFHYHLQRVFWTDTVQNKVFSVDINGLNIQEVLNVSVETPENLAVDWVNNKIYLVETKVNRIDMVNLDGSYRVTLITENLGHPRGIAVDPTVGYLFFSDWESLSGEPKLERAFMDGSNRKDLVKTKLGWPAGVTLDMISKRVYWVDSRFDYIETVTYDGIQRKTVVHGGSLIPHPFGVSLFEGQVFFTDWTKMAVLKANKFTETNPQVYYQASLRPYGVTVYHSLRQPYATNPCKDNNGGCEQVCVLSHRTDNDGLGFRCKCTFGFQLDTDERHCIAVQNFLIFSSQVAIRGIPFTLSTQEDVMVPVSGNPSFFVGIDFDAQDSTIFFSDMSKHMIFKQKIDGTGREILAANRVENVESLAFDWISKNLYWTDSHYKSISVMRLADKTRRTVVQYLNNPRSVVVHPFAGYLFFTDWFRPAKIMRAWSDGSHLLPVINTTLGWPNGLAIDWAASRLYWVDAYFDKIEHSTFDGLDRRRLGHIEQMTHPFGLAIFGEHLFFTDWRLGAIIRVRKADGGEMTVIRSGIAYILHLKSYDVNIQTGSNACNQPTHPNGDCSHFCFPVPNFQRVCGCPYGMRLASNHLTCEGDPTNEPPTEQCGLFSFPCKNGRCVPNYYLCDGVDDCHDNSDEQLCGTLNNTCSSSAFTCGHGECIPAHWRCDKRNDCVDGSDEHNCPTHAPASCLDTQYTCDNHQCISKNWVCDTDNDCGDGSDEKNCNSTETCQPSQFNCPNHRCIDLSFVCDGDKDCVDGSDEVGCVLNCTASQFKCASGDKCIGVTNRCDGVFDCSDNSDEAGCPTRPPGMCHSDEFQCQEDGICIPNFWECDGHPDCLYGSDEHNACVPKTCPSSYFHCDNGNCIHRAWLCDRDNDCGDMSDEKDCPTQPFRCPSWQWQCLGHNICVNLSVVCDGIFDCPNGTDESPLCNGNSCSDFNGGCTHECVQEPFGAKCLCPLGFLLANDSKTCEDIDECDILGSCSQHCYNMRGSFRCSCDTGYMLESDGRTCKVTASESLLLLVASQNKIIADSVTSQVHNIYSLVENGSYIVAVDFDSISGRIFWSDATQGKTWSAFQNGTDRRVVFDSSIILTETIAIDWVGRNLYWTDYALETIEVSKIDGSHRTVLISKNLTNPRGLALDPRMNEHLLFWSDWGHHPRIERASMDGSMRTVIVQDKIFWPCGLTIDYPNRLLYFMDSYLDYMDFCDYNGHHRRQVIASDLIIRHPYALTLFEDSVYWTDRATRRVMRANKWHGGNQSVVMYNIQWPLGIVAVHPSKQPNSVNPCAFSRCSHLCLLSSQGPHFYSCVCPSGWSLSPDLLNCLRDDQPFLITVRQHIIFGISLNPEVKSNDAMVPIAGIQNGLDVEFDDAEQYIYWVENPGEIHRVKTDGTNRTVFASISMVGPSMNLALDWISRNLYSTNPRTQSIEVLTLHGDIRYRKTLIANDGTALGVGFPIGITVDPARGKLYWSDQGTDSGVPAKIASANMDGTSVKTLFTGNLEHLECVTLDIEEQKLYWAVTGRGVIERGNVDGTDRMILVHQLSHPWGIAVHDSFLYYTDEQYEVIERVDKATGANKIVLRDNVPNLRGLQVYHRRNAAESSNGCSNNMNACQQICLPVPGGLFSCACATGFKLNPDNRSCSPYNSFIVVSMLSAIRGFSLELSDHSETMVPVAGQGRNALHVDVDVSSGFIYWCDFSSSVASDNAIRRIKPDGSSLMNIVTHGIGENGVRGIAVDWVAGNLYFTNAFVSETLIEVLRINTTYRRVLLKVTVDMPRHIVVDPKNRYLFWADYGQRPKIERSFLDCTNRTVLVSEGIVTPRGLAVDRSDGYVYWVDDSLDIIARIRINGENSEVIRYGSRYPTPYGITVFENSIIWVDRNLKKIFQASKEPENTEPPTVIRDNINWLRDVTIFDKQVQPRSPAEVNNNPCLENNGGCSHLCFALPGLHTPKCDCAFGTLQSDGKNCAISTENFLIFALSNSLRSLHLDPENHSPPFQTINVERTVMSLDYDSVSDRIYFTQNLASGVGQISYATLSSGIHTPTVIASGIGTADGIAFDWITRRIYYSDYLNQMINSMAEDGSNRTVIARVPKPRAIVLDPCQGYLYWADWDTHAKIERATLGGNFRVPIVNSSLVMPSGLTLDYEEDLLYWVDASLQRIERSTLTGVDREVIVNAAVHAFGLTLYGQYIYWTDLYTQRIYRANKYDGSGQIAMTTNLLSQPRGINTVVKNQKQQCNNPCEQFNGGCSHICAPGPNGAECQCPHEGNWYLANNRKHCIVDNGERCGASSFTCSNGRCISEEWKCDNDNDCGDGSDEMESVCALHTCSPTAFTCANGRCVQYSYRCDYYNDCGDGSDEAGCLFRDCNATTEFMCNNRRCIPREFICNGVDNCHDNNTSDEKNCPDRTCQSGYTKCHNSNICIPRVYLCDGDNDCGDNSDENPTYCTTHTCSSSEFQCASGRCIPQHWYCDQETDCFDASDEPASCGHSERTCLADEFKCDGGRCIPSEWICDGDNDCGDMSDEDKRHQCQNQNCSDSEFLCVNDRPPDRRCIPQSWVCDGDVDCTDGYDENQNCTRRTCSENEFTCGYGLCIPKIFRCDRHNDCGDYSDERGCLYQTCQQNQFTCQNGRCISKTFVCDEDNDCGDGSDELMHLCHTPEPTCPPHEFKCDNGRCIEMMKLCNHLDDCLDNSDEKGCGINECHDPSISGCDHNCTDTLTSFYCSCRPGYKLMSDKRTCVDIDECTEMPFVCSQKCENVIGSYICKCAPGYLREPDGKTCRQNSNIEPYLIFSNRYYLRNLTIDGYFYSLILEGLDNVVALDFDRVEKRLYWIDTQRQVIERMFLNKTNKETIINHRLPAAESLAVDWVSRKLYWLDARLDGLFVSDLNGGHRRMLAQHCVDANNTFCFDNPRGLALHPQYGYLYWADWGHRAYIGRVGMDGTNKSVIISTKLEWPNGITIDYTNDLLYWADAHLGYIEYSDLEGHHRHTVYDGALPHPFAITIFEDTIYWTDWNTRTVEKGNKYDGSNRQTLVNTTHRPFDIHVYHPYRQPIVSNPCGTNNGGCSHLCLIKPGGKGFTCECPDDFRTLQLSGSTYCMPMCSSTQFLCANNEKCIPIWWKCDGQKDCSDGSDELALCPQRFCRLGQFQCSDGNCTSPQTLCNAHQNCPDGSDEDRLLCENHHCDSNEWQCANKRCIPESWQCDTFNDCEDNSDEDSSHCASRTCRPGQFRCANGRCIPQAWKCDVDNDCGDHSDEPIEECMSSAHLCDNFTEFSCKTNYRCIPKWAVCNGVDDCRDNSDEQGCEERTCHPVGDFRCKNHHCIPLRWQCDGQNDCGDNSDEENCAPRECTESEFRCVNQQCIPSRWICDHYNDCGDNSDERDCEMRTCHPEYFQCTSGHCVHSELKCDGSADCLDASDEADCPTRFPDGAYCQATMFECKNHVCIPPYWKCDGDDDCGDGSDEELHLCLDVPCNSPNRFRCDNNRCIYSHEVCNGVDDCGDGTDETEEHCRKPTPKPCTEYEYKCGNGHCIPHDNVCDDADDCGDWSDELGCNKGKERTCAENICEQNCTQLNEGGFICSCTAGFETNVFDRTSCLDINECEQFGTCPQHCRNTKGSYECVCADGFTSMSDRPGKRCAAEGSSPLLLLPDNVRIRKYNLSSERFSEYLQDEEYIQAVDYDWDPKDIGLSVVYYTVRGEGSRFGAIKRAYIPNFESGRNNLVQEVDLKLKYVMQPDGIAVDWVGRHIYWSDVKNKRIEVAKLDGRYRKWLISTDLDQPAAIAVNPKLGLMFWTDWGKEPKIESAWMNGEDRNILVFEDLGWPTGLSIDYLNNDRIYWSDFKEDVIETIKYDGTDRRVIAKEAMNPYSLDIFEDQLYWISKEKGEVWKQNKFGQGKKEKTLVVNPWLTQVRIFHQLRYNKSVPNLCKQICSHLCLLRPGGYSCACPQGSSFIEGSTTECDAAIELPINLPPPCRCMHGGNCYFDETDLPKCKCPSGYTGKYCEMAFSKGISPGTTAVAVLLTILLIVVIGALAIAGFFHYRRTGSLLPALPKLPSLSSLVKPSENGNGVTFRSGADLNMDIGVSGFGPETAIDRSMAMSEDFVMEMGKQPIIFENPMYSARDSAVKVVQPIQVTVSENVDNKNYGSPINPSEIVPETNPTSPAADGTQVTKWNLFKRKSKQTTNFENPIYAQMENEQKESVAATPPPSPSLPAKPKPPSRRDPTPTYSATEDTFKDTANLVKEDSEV

B1: WT human NGAL (ligand-free) (protein)
chain: QDSTSDLIPAPPLSKVPLQQNFQDNQFQGKWYVVGLAGNAILREDKDPQKMYATIYELKEDKSYNVTSVLFRKKKCDYWIRTFVPGCQPGEFTLGNIKSYPGLTSYLVRVVSTNYNQHAMVFFKKVSQNREYFKITLYGRTKELTSELKENFIRFSKSLGLPENHIVFPVPIDQCIDG
B1 showed a Kd of ~60 nM.
